Source: publication PMC7746858

Target: human complement C1q (human)
Assay: ELISA

construct HLZ (6D8 heavy and light chains, C-terminal ZE3 fusion, no epitope tag) (antibody)
fold lower C1q binding than HLZd: 10 fold
